Bridge positions count the residues as written; N and C are the ends. Square brackets hold non-standard residues; d marks the D form. Ends that are not written are not given here. dPhe(F5) = N[C@H](Cc1c(F)c(F)c(F)c(F)c1F)C(=O)O; 1Nal = N[C@@H](Cc1cccc2ccccc12)C(=O)O; 2Nal = N[C@@H](Cc1ccc2ccccc2c1)C(=O)O; S5 = C=CCCC[C@](C)(N)C(=O)O; I_N = not defined here; βAla = NCCC(=O)O

First the molecules themselves.
B1: Bio-SAHM1 (biotinylated stapled MAML1 E21-T36 peptide) (peptide, UniProt Q92585 21-36, looked up)
peptide: ERLRRRI[S5]LCR[S5]HHST
modifications: staple 8-12; not fully specified (N-terminus); also: biotin label, linker not described

The target in one assay is equimolar RAMANK1-CSL complex (human) (UniProt P46531). Briefly: SPR (Biacore 3000), peptide immobilised on a streptavidin chip, equimolar RAMANK1 and CSL injected; bio-SAHM1, stapled peptide.
In the case of B1, the dissociation constant (Kd) (commonly the concentration at which binding is half-saturated) turned out to be 100 nM.

Another assay has as its target GST-RAMANK1-CSL complex (human) (UniProt P46531). Briefly: ALPHAscreen titration matrix, binding components in the range of 10-100 nM.
“synthetic, biotinylated dnMAML1 (Bio-sdnMAML1, residues 16-70) (from UniProt Q92585 16-70) (peptide)” had an ALPHAscreen luminescent signal (maximum) of 45000 c.p.s.

Another assay has as its target NOTCH1-CSL transactivation complex in U2OS cells transfected with the truncated, constitutively activated ΔEGFΔLNR-NOTCH1 allele, P46531. Description: cell-based or functional assay.
Ac-W[βAla]ERWRRRI[S5]LFR[S5]HHSTCEARY (staple 10-14) [SAHM1-25 (E21-Y41 scaffold, L23W/C30F double mutant), Q92585 21-41] registered an EC50, NOTCH1-driven CSL-luciferase dual reporter in U2OS cells of 10 µM and a fold lower IC50 than SAHM1, NOTCH1 reporter gene assay of 2 fold. Take Ac-W[βAla]ERWRRRI[S5]YFR[S5]HHST[dPhe(F5)]EAR[1Nal] (staple 10-14): the EC50, NOTCH1-driven CSL-luciferase dual reporter in U2OS cells was found to be 5 µM and the fold lower IC50 than SAHM1, NOTCH1 reporter gene assay amounted to 4 fold.

A further assay concerns the target equimolar RAMANK1-CSL complex (human) (UniProt P46531). Description: SPR (Biacore 3000), peptide immobilised on a streptavidin chip, equimolar RAMANK1 and CSL injected; bio-sdnMAML1, residues 16-70.
In the case of “synthetic, biotinylated dnMAML1 (Bio-sdnMAML1, residues 16-70) (from UniProt Q92585 16-70) (peptide)”, the Kd turned out to be 40 nM.

The target in another assay is GST-RAMANK1-CSL complex (human) (UniProt P46531). Briefly: ALPHAscreen competition against Bio-sdnMAML1 binding to GST-RAMANK1-CSL. (In general: Alpha assays give light when donor and acceptor beads are brought close together.)
As for “unlabeled Ac-sdnMAML1 peptide (from UniProt Q92585 16-70)”, the IC50 (read off the curve) amounted to 0.1 µM.

The next assay has the same target. Briefly: ALPHAscreen NTC competition: peptide titrated against Bio-sdnMAML1 binding to GST-RAMANK1-CSL; IC50 with 95% CI.
Regarding Ac-W[βAla]ERWRRRI[S5]FCR[S5]HHST (staple 10-14) [SAHM1-22], the IC50 (as a rule, the midpoint of a concentration-inhibition curve) is 690 nM. Ac-W[βAla]ERWRRRI[S5]FCR[S5]HHSTCEARY (staple 10-14; cysteine pairing not given here) [SAHM1-26]: the IC50 came to 850 nM. Regarding Ac-W[βAla]ERWRRRI[S5]WCR[S5]HHSTCEARY (staple 10-14; cysteine pairing not given here) [SAHM1-27 (E21-Y41 scaffold, L23W/L29W double mutant)], the half-inhibitory concentration (IC50) came to 200 nM. Ac-W[βAla]ERWRRRI[S5]YCR[S5]HHST (staple 10-14) [SAHM1-55] registered an IC50 of 250 nM. Regarding Ac-W[βAla]ERLRRRI[S5]LCR[S5]HHSTCEARY (staple 10-14; cysteine pairing not given here) [SAHM1-24 (stapled peptide of the E21-Y41 scaffold)], the IC50 was determined as 1120 nM. The molecule Ac-W[βAla]ERLRRRI[S5]LCR[S5]HHSTFEARY (staple 10-14) [SAHM1-28] showed an IC50 of 560 nM. Ac-W[βAla]ERWRRRL[S5]YCR[S5]HHST (staple 10-14) [SAHM1-47] had an IC50 of 460 nM.

Take Ac-W[βAla]ERWRRRL[S5]YCR[S5]HHSTCEARY (staple 10-14; cysteine pairing not given here) [SAHM1-59]: the IC50 was found to be 340 nM. Consider Ac-W[βAla]ERWRRRL[S5]WVR[S5]HHST (staple 10-14) [SAHM1-38], for which the IC50 came to 540 nM. Ac-W[βAla]ERWRRRL[S5]WFR[S5]HHST (staple 10-14) [SAHM1-39] came in with an IC50 of 900 nM. The molecule Ac-W[βAla]ERWRRRL[S5]LCR[S5]HHSTCEAR[2Nal] (staple 10-14; cysteine pairing not given here) [SAHM1-50] showed an IC50 of 410 nM. Take Ac-W[βAla]ERWRRRL[S5]YVR[S5]HHSTCEARYEAVSPERL (staple 10-14) [SAHM1-80]: the IC50 worked out at 360 nM. Ac-W[βAla]ERWRRRL[S5]YCR[S5]HHSTCEARYEAVSPERL (staple 10-14; cysteine pairing not given here) [SAHM1-76] came in with a concentration for half-maximal inhibition (IC50) of 270 nM. Ac-W[βAla]ERWRRRI[S5]LFR[S5]HHSTCEARY (staple 10-14) [SAHM1-25 (E21-Y41 scaffold, L23W/C30F double mutant)] displayed an IC50 of 290 nM. Molecule Ac-W[βAla]ERWRRRL[S5]WCR[S5]HHSTCEARYEAVSPERL (staple 10-14; cysteine pairing not given here) [SAHM1-81] yielded an IC50 of 370 nM.

For the molecule Ac-W[βAla]ERWRRRL[S5]LFR[S5]HHST[dPhe(F5)]EARY (staple 10-14) [SAHM1-35], the IC50 is 1200 nM. In the case of Ac-W[βAla]ERWRRRL[S5]YFR[S5]HHSTCEAR[1Nal] (staple 10-14) [SAHM1-61], the IC50 was found to be 440 nM. Ac-W[βAla]ERWRRRI[S5]YFR[S5]HHST (staple 10-14) [SAHM1-56 (E21-T36 scaffold with L23W, L29Y and C30F)] had an IC50 of 220 nM. On to Ac-W[βAla]ERWRRRL[S5]WCR[S5]HHST[dPhe(F5)]EARY (staple 10-14) [SAHM1-43], for which the IC50 is 780 nM. The molecule Ac-W[βAla]ERWRRRL[S5]LCR[S5]HHSTCEAR[1Nal] (staple 10-14; cysteine pairing not given here) [SAHM1-51] gave an IC50 of 360 nM. Ac-W[βAla]ERLRRRI[S5]LCR[S5]HHST (staple 10-14) [AcW-SAHM1 (stapled MAML1 E21-T36 peptide with N-acetyl tryptophan cap)] registered an IC50 of 1700 nM. Ac-W[βAla]ERWRRRL[S5]LCR[S5]HHST[I_N]EARY (staple 10-14; reading uncertain) [SAHM1-52] displayed an IC50 of 610 nM.

Regarding Ac-W[βAla]ERWRRRL[S5]YFR[S5]HHST[dPhe(F5)]EARY (staple 10-14) [SAHM1-60], the IC50 was found to be 450 nM. Same read-out and setting: as for Ac-W[βAla]ELER[S5]HTF[S5]LHQR (staple 7-11) [SAHM5], the figure is 6500 nM; as for Ac-W[βAla]RELRREI[S5]LCR[S5]HHST (staple 10-14) [SAHM1-D1], 3700 nM; as for Ac-W[βAla]ERWRRRI[S5]YFR[S5]HHST[dPhe(F5)]EAR[1Nal] (staple 10-14) [SAHM1-62 (E21-Y41 scaffold with L23W, L29Y, C30F, C37 D-pentafluoro-Phe and Y41 1-naphthylalanine)], 320 nM. As to Ac-W[βAla]ERWRRRL[S5]YVR[S5]HHST (staple 10-14) [SAHM1-48], the IC50 is 670 nM.

The target in a further assay is equimolar RAMANK1-CSL complex (human) (UniProt P46531). Briefly: SPR, preformed RAMANK1-CSL complex.
Regarding “bio-nt-sdnMAML1 (residues 16-45), N-terminal helix of dnMAML1 (from UniProt Q92585 16-45) (peptide)”, the fold decrease in affinity against s-dnMAML1 came to 10 fold.

Another assay shares this target. Description: SPR (Biacore 3000), peptide immobilised on a streptavidin chip, equimolar RAMANK1 and CSL injected; bio-nt-sdnMAML1, residues 16-45.
“bio-nt-sdnMAML1 (residues 16-45), N-terminal helix of dnMAML1 (from UniProt Q92585 16-45) (peptide)” came in with a Kd of 400 nM.

Another assay addresses GST-RAMANK1-CSL complex (human) (UniProt P46531). Description: ALPHAscreen, 40 nM of all partners.
For “synthetic, biotinylated dnMAML1 (Bio-sdnMAML1, residues 16-70) (from UniProt Q92585 16-70) (peptide)”, the signal-to-noise ratio was found to be 30 fold.

Source of the values: patent US20140256912A1, “Stabilized Variant MAML Peptides and Uses Thereof” (PRESIDENT AND FELLOWS OF HARVARD COLLEGE, priority 2011, published 2014).
